The record followed here is patent US20110171215A1 (ISIS INNOVATION, published 2011).

The target in assay [1] is T1, human PD-1 extracellular region / murine CD28 chimera, mutant L16R, on HEK-293T cells (human; mouse, UniProt Q15116 25-170; P31041 151-218, L16R).
T1 construct: extracellular domain;domain: transmembrane and intracellular regions; Single-residue 'drastic' mutant of m4; constructs elsewhere are counted on the mature polypeptide
As to the kind of experiment: flow cytometry on transfected HEK-293T cells. The method, then:
(§1) Constructs encoding the human extracellular region of PD-1 with the transmembrane and intracellular regions of murine CD28 were cloned into the bi-cistronic mammalian expression vector pGFP2-n2 from BioSignal Packard Ltd, which also encodes GFP. Mutant constructs varying by one amino acid were prepared using the “drastic” mutagenesis approach (Davis el al. Proc Natl Acad Sci USA. 95, 5490-4 (1998)). Plasmids (2 μg/well) were transfected into HEK-293T cells in 6 well plates using Genejuice transfection reagent (Novagen; 6 μl/well). Mock and no-transfection controls were included with each experiment. Cells were harvested at 18-24 hours and stained with anti-PD1 antibodies or isotype controls at 10 μg/ml in PBS-azide for 1 h at 4° C. Cells were washed with PBS-Azide, pelleted at 1500 rpm/5 min and primary antibodies were labelled with Alexa647-conjugated donkey anti-mouse IgG (5 μg/ml) in PBS-Azide for 30 min at 4° C. Cells were washed as above and resuspended in 200 μl PBS-Azide before being analysed at the flow cytometer. Propidium iodide (5 μg/ml) was added immediately prior to analysis to identify dead cells. GFP-positive (transfected) viable cells were gated and analysed for binding of anti-PD1 antibodies. […]
Background: A flow cytometer gives signals particle by particle.

Assay [2] has as its target T2, human PD-1 extracellular region / murine CD28 chimera, mutant R118D, on HEK-293T cells (human; mouse, UniProt Q15116 25-170; P31041 151-218, R118D).
T2 construct: extracellular domain;domain: transmembrane and intracellular regions; Single-residue 'drastic' mutant of m4
Kind of assay: flow cytometry on transfected HEK-293T cells. The method, then: as §1

Assay [3] deals with T3, human PD-1 extracellular region with the transmembrane and intracellular regions of murine CD28, expressed on … (human; mouse, UniProt Q15116 25-170; P31041 151-218, limits assumed).
T3 construct: extracellular domain;domain: transmembrane and intracellular regions; also called human PD-1 transfectants
As to the kind of experiment: flow cytometry on transfected HEK 293T cells. The method, then: as §1

T3 sequence (Q15116 other isoform, or with tags, fused parts or gaps limits assumed, change not shown): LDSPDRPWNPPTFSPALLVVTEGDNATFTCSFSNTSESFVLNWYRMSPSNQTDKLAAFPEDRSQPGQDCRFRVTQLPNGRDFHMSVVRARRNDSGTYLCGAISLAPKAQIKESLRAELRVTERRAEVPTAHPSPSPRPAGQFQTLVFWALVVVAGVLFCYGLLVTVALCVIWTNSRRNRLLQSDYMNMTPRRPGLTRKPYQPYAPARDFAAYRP
T1 sequence (Q15116 other isoform, or with tags, fused parts or gaps L16R | L16R L16R): as the sequence (Q15116 other isoform, or with tags, fused parts or gaps limits assumed, change not shown) above, with L17R counted along it
T2 sequence (Q15116 other isoform, or with tags, fused parts or gaps R118D | R118D R118D): as the sequence (Q15116 other isoform, or with tags, fused parts or gaps limits assumed, change not shown) above, with R119D counted along it

B1: Clone 19 anti-PD-1 antibody (antibody, IgG1, V domains shown)
VH: QVQLQQSGAELVKPGASVKMSCKAFGYTFTTYPIEWMKQNHGKSLEWIGNFHPYNDDTKYNEKFKGKAKLTVEKSSTTVYLELSRLTSDDSAVYYCARENYGSHGGFVYWGQGTLVTV
VL: ENVLTQSPAIMSASPGEKVTMTCRASSSVISSYLHWYQQKSGASPKLWIYSTSNLASGVPDRFSGSGSGTSYSLTISSVEAEDAATYYCQQYNGYPLTFGAGTKLEIK
notes: The printed VH ends at ...TV
In the case of B1, the binding result in assay [1] and in assay [2] was “no binding (tested: 10 µg/ml)” throughout.

B2: Clone 2 anti-PD-1 antibody (antibody, V domains shown)
VH: QVQLQQPGAELVKPGASVKLSCKASGYTFTTYYLYWVRQRPGQGLEWIGGINPSNGGTNFNEKFKSKATLTVDKSSSTAYMQLNSLTSEDSAVYYCTRRDYRYDRGFDYWGQGTSVTV
VL: DIVLTQSPASLAVSLGQRATISCRASKSVSTSGFNYIHWYQQKPGQPPKLLIYLASNLESGVPARFSGSGSGTDFTLNIHPVEDEDAATYYCQHSRELPLTFGAGTKLEIK
notes: The printed VH ends at ...TV
Turning to B2, in assay [3], the binding result is “binds”.
